How the values were obtained:
purified protein = substrate: O=[N+]([O-])c1ccc(O[C@@H]2O[C@H](CO)[C@@H](O)[C@H](O)[C@H]2O)cc1; assay: purified protein; assay type: biochemical, Aspergillus fumigatus; conditions: 50 mM sodium phosphate pH 6.0, 40 °C, 30 min
[1] = substrate: OCc1ccccc1O[C@@H]1O[C@H](CO)[C@@H](O)[C@H](O)[C@H]1O; assay: DNS method for released glucose, non-linear regression; assay type: biochemical, Aspergillus fumigatus; conditions: 50 mM sodium phosphate pH 6.0, 40 °C, 30 min
Source text: DNS method for released glucose, non-linear regression on AfBgl1.3

B1: AfBgl1.3 (Aspergillus fumigatus Af293) (protein)
chain: MGSTTTSTLPPDFLWGFATASYQIEGAVDEDGRGPSIWDTFCKIPGKIAGGASGEVACDSYHRTHEDIALLKECGAKAYRFSISWSRVIPLGGRNDPVNEKGLQHYVKFVDDLLAAGITPLVTLFHWDLPDALDKRYGGLLNKEEFVADFANYARVMFNAFGSKVKYWITFNEPWCSSVLGYNVGQFAPGRTSDRTKSPVGDGSREPWIVGHNILVAHGAAVKIYREEFKPRDGGEIGITLNGDWAEPWDPENPADVEACDRKIEFAISWFADPIYHGKYPDSMVKQLGDRLPTWTPEDIALVHGSNDFYGMNHYCANYIKAKTGEPDPNDVAGNLEILLQNKNGEWIGPETQSPWLRPHPIGFRKLLKWLSDRYNQPKIYVTENGTSLKGESDLPVDQIVNDDFRVQYFREYIAAMADAYTLDGVNVRAYMAWSLMDNFEWAEGYETRFGVTFVDYANNQRRIPKKSAKVLREIFDQYIEKA
In the case of B1, the Km (purified protein) is reported as 7.6 ± 0.8 mM, the Vmax (purified protein) is reported as 656 µmol/min/mg and the kcat (purified protein) is reported as 596 s⁻¹. For the same protein, the kcat/Km (purified protein) was 78000 M⁻¹ s⁻¹, the Km [1] was 17.6 ± 1.9 mM and the Vmax [1] was 706 µmol/min/mg. It also gave a kcat [1] of 622 s⁻¹ and a kcat/Km [1] of 35000 M⁻¹ s⁻¹.
